Results on five molecules are retold here after article PMC12865225 (Clinical and Translational Science, 2026).

The Km is the concentration of substrate that gives half-maximal velocity.

One data set addresses T1, OATP1B3 (Homo sapiens, UniProt Q9NPD5).
T1 construct: expressed in transfected cells; host or cells: HEK293 (recombinant baculovirus-mediated transduction)
T1 sequence (Q9NPD5 1-702): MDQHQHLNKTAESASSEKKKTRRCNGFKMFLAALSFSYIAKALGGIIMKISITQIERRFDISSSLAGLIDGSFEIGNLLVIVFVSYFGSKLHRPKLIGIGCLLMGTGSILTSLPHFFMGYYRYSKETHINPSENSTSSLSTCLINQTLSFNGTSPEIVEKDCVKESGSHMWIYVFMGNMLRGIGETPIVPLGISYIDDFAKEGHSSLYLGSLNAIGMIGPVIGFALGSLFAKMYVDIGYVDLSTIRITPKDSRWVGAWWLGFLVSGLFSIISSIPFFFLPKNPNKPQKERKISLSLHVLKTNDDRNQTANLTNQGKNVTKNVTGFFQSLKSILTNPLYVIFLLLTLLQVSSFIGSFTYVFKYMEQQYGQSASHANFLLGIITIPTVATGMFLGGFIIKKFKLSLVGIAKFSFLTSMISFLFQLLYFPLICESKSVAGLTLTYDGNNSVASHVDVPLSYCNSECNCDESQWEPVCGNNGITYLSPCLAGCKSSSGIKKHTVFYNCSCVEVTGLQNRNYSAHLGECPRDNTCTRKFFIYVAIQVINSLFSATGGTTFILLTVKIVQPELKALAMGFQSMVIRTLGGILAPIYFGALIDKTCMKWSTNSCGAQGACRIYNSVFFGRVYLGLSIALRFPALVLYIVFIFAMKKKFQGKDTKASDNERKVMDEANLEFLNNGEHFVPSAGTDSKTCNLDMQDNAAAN
Further details: method as in PMID 23571415. Conditions: 10 μM in vitro; cited from earlier work.

The target of a further data set is T2, OATP1B1 (Homo sapiens, UniProt Q9Y6L6).
T2 construct: expressed in transfected cells; host or cells: HEK293 (recombinant baculovirus-mediated transduction)
T2 sequence (Q9Y6L6 1-691): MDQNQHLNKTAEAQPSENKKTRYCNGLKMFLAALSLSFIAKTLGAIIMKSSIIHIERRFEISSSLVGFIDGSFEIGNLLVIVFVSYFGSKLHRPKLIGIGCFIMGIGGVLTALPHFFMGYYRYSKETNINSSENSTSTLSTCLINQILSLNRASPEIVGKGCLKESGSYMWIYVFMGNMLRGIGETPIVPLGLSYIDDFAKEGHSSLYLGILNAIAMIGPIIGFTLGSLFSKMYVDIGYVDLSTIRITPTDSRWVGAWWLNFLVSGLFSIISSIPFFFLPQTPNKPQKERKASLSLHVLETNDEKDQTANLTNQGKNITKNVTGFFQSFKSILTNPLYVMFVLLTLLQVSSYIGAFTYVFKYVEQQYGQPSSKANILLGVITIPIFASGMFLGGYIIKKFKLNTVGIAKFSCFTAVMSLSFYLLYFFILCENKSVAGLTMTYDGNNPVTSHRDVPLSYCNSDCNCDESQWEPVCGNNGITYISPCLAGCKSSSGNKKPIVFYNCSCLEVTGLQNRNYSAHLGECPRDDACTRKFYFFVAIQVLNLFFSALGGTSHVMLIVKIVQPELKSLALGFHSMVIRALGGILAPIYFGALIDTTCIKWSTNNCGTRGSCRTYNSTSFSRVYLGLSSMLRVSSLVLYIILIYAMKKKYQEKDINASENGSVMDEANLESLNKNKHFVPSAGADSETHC
Further details: method as in PMID 23571415. Conditions: 10 μM in vitro; cited from earlier work.

Substrate in data set [1]: Cc1onc(-c2c(Cl)cccc2Cl)c1C(=O)N[C@@H]1C(=O)N2[C@@H]1SC(C)(C)[C@@H]2C(=O)O
The experiment in a line: cells, lysate or membranes. The note with it: other: uptake, 2 min; pH 7.4; 37.0 °C.

Substrate in data set [2]: Cc1onc(-c2c(F)cccc2Cl)c1C(=O)N[C@@H]1C(=O)N2[C@@H]1SC(C)(C)[C@@H]2C(=O)O
Description: cells, lysate or membranes. The note with it: other: uptake, 2 min; pH 7.4; 37.0 °C.

Where “and” joins values, the source holds several entries; their conditions need not be identical. Equal values may be shown once.

Consider `Cc1onc(-c2ccccc2Cl)c1C(=O)N[C@@H]1C(=O)N2[C@@H]1SC(C)(C)[C@@H]2C(=O)O` [cloxacillin], for which the “inhibition of OATP1B3 transport” value on OATP1B3 is on record as “around 50%”. Further, on OATP1B1, the “inhibition of OATP1B1 transport” value is given as “around 50%”.

B1: OATP2B1 (Homo sapiens) (protein)
chain: MGPRIGPAGEVPQVPDKETKATMGTENTPGGKASPDPQDVRPSVFHNIKLFVLCHSLLQLAQLMISGYLKSSISTVEKRFGLSSQTSGLLASFNEVGNTALIVFVSYFGSRVHRPRMIGYGAILVALAGLLMTLPHFISEPYRYDNTSPEDMPQDFKASLCLPTTSAPASAPSNGNCSSYTETQHLSVVGIMFVAQTLLGVGGVPIQPFGISYIDDFAHNSNSPLYLGILFAVTMMGPGLAFGLGSLMLRLYVDINQMPEGGISLTIKDPRWVGAWWLGFLIAAGAVALAAIPYFFFPKEMPKEKRELQFRRKVLAVTDSPARKGKDSPSKQSPGESTKKQDGLVQIAPNLTVIQFIKVFPRVLLQTLRHPIFLLVVLSQVCLSSMAAGMATFLPKFLERQFSITASYANLLIGCLSFPSVIVGIVVGGVLVKRLHLGPVGCGALCLLGMLLCLFFSLPLFFIGCSSHQIAGITHQTSAHPGLELSPSCMEACSCPLDGFNPVCDPSTRVEYITPCHAGCSSWVVQDALDNSQVFYTNCSCVVEGNPVLAGSCDSTCSHLVVPFLLLVSLGSALACLTHTPSFMLILRGVKKEDKTLAVGIQFMFLRILAWMPSPVIHGSAIDTTCVHWALSCGRRAVCRYYNNDLLRNRFIGLQFFFKTGSVICFALVLAVLRQQDKEARTKESRSSPAVEQQLLVSGPGKKPEDSRV
For B1, the Michaelis-Menten constant (Km) was 34.7 µM in data set [1] and 41.6 µM in data set [2].

B2: OATP1B1 (Homo sapiens) (protein)
chain: MDQNQHLNKTAEAQPSENKKTRYCNGLKMFLAALSLSFIAKTLGAIIMKSSIIHIERRFEISSSLVGFIDGSFEIGNLLVIVFVSYFGSKLHRPKLIGIGCFIMGIGGVLTALPHFFMGYYRYSKETNINSSENSTSTLSTCLINQILSLNRASPEIVGKGCLKESGSYMWIYVFMGNMLRGIGETPIVPLGLSYIDDFAKEGHSSLYLGILNAIAMIGPIIGFTLGSLFSKMYVDIGYVDLSTIRITPTDSRWVGAWWLNFLVSGLFSIISSIPFFFLPQTPNKPQKERKASLSLHVLETNDEKDQTANLTNQGKNITKNVTGFFQSFKSILTNPLYVMFVLLTLLQVSSYIGAFTYVFKYVEQQYGQPSSKANILLGVITIPIFASGMFLGGYIIKKFKLNTVGIAKFSCFTAVMSLSFYLLYFFILCENKSVAGLTMTYDGNNPVTSHRDVPLSYCNSDCNCDESQWEPVCGNNGITYISPCLAGCKSSSGNKKPIVFYNCSCLEVTGLQNRNYSAHLGECPRDDACTRKFYFFVAIQVLNLFFSALGGTSHVMLIVKIVQPELKSLALGFHSMVIRALGGILAPIYFGALIDTTCIKWSTNNCGTRGSCRTYNSTSFSRVYLGLSSMLRVSSLVLYIILIYAMKKKYQEKDINASENGSVMDEANLESLNKNKHFVPSAGADSETHC
On to B2, for which the Km in data set [1] was 3.22 µM and 3 µM; in data set [2] it was 10.4 µM.

B3: OAT3 (Homo sapiens) (protein)
chain: MTFSEILDRVGSMGHFQFLHVAILGLPILNMANHNLLQIFTAATPVHHCRPPHNASTGPWVLPMGPNGKPERCLRFVHPPNASLPNDTQRAMEPCLDGWVYNSTKDSIVTEWDLVCNSNKLKEMAQSIFMAGILIGGLVLGDLSDRFGRRPILTCSYLLLAASGSGAAFSPTFPIYMVFRFLCGFGISGITLSTVILNVEWVPTRMRAIMSTALGYCYTFGQFILPGLAYAIPQWRWLQLTVSIPFFVFFLSSWWTPESIRWLVLSGKSSKALKILRRVAVFNGKKEEGERLSLEELKLNLQKEISLAKAKYTASDLFRIPMLRRMTFCLSLAWFATGFAYYSLAMGVEEFGVNLYILQIIFGGVDVPAKFITILSLSYLGRHTTQAAALLLAGGAILALTFVPLDLQTVRTVLAVFGKGCLSSSFSCLFLYTSELYPTVIRQTGMGVSNLWTRVGSMVSPLVKITGEVQPFIPNIIYGITALLGGSAALFLPETLNQPLPETIEDLENWSLRAKKPKQEPEVEKASQRIPLQPHGPGLGSS
For the molecule B3, the Km in data set [1] was 22.4 µM; in data set [2], 27.0 µM.

B4: OAT4 (Homo sapiens) (protein)
chain: MAFSKLLEQAGGVGLFQTLQVLTFILPCLMIPSQMLLENFSAAIPGHRCWTHMLDNGSAVSTNMTPKALLTISIPPGPNQGPHQCRRFRQPQWQLLDPNATATSWSEADTEPCVDGWVYDRSVFTSTIVAKWDLVCSSQGLKPLSQSIFMSGILVGSFIWGLLSYRFGRKPMLSWCCLQLAVAGTSTIFAPTFVIYCGLRFVAAFGMAGIFLSSLTLMVEWTTTSRRAVTMTVVGCAFSAGQAALGGLAFALRDWRTLQLAASVPFFAISLISWWLPESARWLIIKGKPDQALQELRKVARINGHKEAKNLTIEVLMSSVKEEVASAKEPRSVLDLFCVPVLRWRSCAMLVVNFSLLISYYGLVFDLQSLGRDIFLLQALFGAVDFLGRATTALLLSFLGRRTIQAGSQAMAGLAILANMLVPQDLQTLRVVFAVLGKGCFGISLTCLTIYKAELFPTPVRMTADGILHTVGRLGAMMGPLILMSRQALPLLPPLLYGVISIASSLVVLFFLPETQGLPLPDTIQDLESQKSTAAQGNRQEAVTVESTSL
Consider B4, for which the Km was found to be 32.9 µM in data set [1] and 52.5 µM in data set [2].
